These results are taken from patent US12534533B2, “Anti-chemokine like receptor 1 humanized antibodies and their therapeutic applications” (OSE IMMUNOTHERAPEUTICS, priority 2019, dated 2026).

The test system of experiment [1] is Mice dendritic cells. Briefly: DCs maturation and differentiation, activation markers by FACS. The format is cell-based. On the procedure:
FIG. 1. Effect of the anti-CMKLR1 variants 1G1, 2G1, 3G1 and 4G1 chimeric antibodies on the DCs maturation and differentiation. Mice dendritic cells were incubated during maturation phase (24 h or 48 h) followed by a differentiation phase with excipient or RvE1 or anti-CMKLR1 antibodies variants (mutations on positions 1 and 2 of SEQ ID No. 8, corresponding to the VH-CDR3: 1G1 (LL), 2G1 (LI), 3G1 (IL) or 4G1 (II) or isotype controls (hIgG1 or mIgG)). Cells were then stained for FACS analysis with cell marker antibodies: A. CD80-PE; B. CD86-FITC; C. CD103-PerCPCy5.5; D. I/Ab-APC. Mean of Fluorescence was determined in each condition. E and F represent the viability of the cells measured by FACS using LIVE/DEAD® kit from Life Technologies in each condition after 24 or 48 hours of maturation respectively.
FIG. 16. Study of the myeloid cell activation markers after CMKLR1 pathway activation. Dendritic cells incubated in excipient, RvE1, 2G1 or isotype control (hIgG1) were then stained for FACS analysis with marker antibodies: A. CD80-PE. B. CD86-FITC. C. CD103-PerCPCy5.5. D. CD40-PeCy7. E. I/Ab-APC. Mean of Fluorescence was determined in each condition.
Bone marrow cells were harvested and cultured in RPMI medium supplemented with 10% FBS, glutamine and antibiotics and the dendritic cell differentiation was induced by GM-CSF at 20 ng/ml for 7 days. Then, immature dendritic cells (iDC) were collected and cultured for 24 hours with LPS (100 ng/ml) to induce the maturation from iDC to mDC. Treatments were added during differentiation and maturation at 2 μg/ml.
Dendritic cells were resuspended in PBS-FBS-EDTA and incubated with live and dead (LIVE/DEAD® Fixable Dead Cell Stains Yellow-Life Technologies) for 30 minutes on ice. Staining of CD11c-BV711, CD11b-APCCy7, I/Ab-APC, CD103-PerCPCy5.5, CCR7-V450, CD40-PeCy7, CD80-PE, CD86-FITC (all provided by BD Pharmingen) were performed.

Experiment [2] relates to spontaneous type 1 diabetes in NOD mice. Briefly: type 1 diabetes NOD model. The format is in vivo. The note with it: 20 μg/injection i.p. three times a week for 2 weeks. The text has this: FIG. 5. Effect of an anti-CMKLR1 antibody on a mice type1 non-obese diabetes model. Mice develop spontaneous diabetes. […] A. Percentage of survival, B. individual representation of blood glucose concentration in mg/dL. C. pooled representation of blood glucose concentration in mg/dL.
8 weeks-old NOD female mice were obtained from Charles River laboratory. These mice develop a spontaneous type 1 diabetes at age between 12 to 20 weeks. The diabetes initiation can be measured by the high glycaemia.

The test system of experiment [3] is CCR7 expression at the surface of pro-inflammatory macrophages M1. Briefly: CCR7 expression on M1 macrophages with coated antibodies. The class given is cell-based, human. The note with it: antibody coated on plate, 48 h, flow cytometry; vs isotype control; FIG. 25, FIG. 35. As for the experimental part:
FIG. 25. Inhibition of CCR7 expression on M1 macrophages cells in vitro with anti-ChemR23 antibodies coated. 2G1 and all humanized 2G1 variants (HALA, HCLC, HCLD, HDLC and HDLD) were immobilized on plate. Isotype control were added as controls. Two isotypes which prevent FcRγ binding, i.e., 2G1-N297A (2G1 wt mutated in N297A to reduce FcγR binding), and 2G4 (wt with isotype IgG4mutated in S228P to stabilise hinge region) were also added. Pro-inflammatory macrophages M1 were added on coated plate for 48 h, and CCR7 expression at the surface of the macrophages was measured by flow cytometry.
FIG. 35—Inhibition of CCR7 expression on M1 macrophages cells in vitro with anti-ChemR23 antibody coated. The humanized 2G1 variant HEF-LD-T52S was immobilized on plate. Isotype control were added as controls. Pro-inflammatory macrophages M1 were added on coated plate, and CCR7 expression at the surface of the macrophages was measured by flow cytometry.
MATERIAL AND METHODS. […]
RESULTS. […] Pro-inflammatory macrophages M1 were added on coated plate for 48 h, and CCR7 expression at the surface of the macrophages was measured by flow cytometry.
The humanized 2G1 variant HEF-LD-T52S was immobilized on plate. […] Pro-inflammatory macrophages M1 were added on coated plate for 48 h, and CCR7 expression at the surface of the macrophages was measured by flow cytometry. […]

Experiment [4] concerns MC38 CRC cell line. Briefly: CRC model, tumor cell inoculated (MC38 subcutaneously). The format is in vivo, mice. The conditions noted are these: FIG. 31A. On the procedure: Tumor inoculation was performed with 0.5M of MC38 CRC cell line subcutaneously. Mice were injected three times a week with 1 mg/kg of 2G1 or Ctrl Ab for 3 weeks starting at d4 after tumor induction. Cyclophosphamide was injected I.P. once at 100 mg/kg. Tumor development was assessed three times a week and survival curves were established when mice developed a tumor >1000 mm3.

B1: 2G1: parental chimeric anti-CMKLR1 antibody: heavy chain variable domain SEQ ID No. 37, light chain variable domain SEQ ID No. 49 (antibody, V domains shown)
VH: EVQLVASGGGLVQPGGSLKLSCAASGFTFSSYGMSWVRQTPDRRLELVATINRYGGSTYYPDSVKGRFTISRDNAKNTLYLQMSSLKSEDTAMYYCPRLIYYGNEGDSWGQGTTLTVSS
VL: QIVLTQSPAIMSASPGEKVTMTCSASSSVSFMHWYQQKSGTSPKRWIYDTTKLTSGVPARFSGSGSGTFYSLTISSMEAEDAATYYCQQWNSKPPLTFGPGTKLELKR
B1: the viability of cells entry in experiment [1] (LIVE/DEAD kit, after 24 or 48 hours of maturation, FIGS. 1E and 1F) is listed as “enhanced”. The “expression of CD80, CD86, CD103, CD40 and IAb” value in experiment [1] (compared to the excipient or isotype control, FIG. 16) is recorded as “strong decrease”. Besides, the “DCs activation and/or maturation (DCs expressing CD103 and IAb)” value in experiment [1] (maturation 24 h or 48 h, FIG. 1) was “inhibit DCs activation and/or maturation in a stronger manner than other synthetized antibodies”. Further, the Percentage of survival entry in experiment [2] (FIG. 5A) is “better survival percentage”. In addition, the “glycaemia (blood glucose concentration)” value in experiment [2] (FIG. 5B-C) is listed as “almost normal glycaemia”. Further, the “expression of CCR7 at the surface of pro-inflammatory macrophages (M1)” value in experiment [3] was “able to decrease expression of CCR7”. In addition, in experiment [4] (1 mg/kg three times a week for 3 weeks starting at d4, vs control antibody), the tumor volume result is “reduced”. Also, the remission result in experiment [4] (in several cases) was “complete remission”.
